How the values were obtained:
AncSZ = test: phosphorylation enrichment, bacterial display (enrichment ratio); higher = better substrate or ligand; peptides without Tyr show the background
EPHB1 = EPHB1 (UniProt P54762); test: as above
EPHB2 = EPHB2 (UniProt P29323); test: as above
FGFR1 = FGFR1 (UniProt P11362); test: as above
FGFR3 = FGFR3 (UniProt P22607); test: as above
Fer (mouse) = test: as above
Fes = Fes (UniProt P07332); test: as above
Fyn = Fyn (UniProt P06241); test: as above
Hck = Hck (UniProt P08631); test: as above
Jak2 = Jak2 (UniProt O60674); test: as above
MERTK = MERTK (UniProt Q12866); test: as above
c-Abl (mouse) = test: as above
c-Src = test: as above
Grb2 SH2 = Grb2 SH2 (UniProt P62993); test: SH2 binding enrichment of the phosphorylated peptide, bacterial display (enrichment ratio); higher = better substrate or ligand; peptides without Tyr show the background
SHP2-C SH2 = test: as above
c-Src SH2 = test: as above
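Wherever SH2 binding enrichment of the phosphorylated peptide, bacterial display is given: peptide library displayed on the E. coli surface as eCPX fusions, selected cells deep-sequenced, score is each peptide's frequency after selection divided by its frequency in the input.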
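Wherever phosphorylation enrichment, bacterial display is given: 11-residue human phosphosite peptides and single-mutation variants displayed on the E. coli surface, counted by deep sequencing, each peptide's frequency after selection divided by its frequency in the unselected input library; frequency after pTyr selection over input frequency; kinase dosed for 20-30% of maximal phosphorylation in three min.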

Chain of Fyn (P06241 whole entry, looked up): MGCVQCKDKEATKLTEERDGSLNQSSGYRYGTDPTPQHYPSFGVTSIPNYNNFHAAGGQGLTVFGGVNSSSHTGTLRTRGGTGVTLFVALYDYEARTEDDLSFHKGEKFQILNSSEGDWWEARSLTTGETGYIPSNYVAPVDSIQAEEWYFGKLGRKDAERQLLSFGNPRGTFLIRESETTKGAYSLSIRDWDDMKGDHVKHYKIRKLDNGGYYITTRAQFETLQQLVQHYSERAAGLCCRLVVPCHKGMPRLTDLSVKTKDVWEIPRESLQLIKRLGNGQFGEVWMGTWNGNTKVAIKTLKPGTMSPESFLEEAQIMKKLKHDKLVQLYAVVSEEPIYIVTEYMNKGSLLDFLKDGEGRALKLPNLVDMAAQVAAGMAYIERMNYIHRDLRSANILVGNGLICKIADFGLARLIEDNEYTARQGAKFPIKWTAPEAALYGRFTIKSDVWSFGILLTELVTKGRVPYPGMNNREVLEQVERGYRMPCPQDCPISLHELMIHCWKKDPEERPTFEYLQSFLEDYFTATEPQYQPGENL
Chain of EPHB1 (P54762 whole entry, looked up): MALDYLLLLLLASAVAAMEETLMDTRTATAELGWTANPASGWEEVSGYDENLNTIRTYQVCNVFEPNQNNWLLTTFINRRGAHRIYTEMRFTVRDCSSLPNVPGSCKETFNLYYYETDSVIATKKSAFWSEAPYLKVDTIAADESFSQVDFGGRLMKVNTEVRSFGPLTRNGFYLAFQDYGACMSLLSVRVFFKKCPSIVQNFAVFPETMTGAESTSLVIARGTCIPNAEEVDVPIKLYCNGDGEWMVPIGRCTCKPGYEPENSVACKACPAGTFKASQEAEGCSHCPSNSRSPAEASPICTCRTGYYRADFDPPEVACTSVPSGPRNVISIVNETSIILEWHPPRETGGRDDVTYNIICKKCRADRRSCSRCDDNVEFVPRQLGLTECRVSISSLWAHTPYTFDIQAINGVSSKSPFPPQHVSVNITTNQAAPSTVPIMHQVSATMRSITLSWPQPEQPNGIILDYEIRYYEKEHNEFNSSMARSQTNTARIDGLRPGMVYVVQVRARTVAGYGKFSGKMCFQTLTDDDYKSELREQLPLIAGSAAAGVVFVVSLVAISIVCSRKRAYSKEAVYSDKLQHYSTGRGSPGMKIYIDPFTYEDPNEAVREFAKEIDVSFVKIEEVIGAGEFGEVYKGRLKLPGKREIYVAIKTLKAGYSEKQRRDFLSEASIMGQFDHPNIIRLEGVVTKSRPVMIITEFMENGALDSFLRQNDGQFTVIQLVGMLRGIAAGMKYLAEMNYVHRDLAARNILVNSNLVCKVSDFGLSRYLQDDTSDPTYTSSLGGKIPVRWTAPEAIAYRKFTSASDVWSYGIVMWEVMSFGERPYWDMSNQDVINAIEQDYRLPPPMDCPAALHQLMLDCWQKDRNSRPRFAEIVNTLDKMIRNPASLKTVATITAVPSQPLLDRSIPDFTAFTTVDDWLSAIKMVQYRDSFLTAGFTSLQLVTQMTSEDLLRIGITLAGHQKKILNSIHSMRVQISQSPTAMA
Chain of FGFR1 (P11362 whole entry, looked up): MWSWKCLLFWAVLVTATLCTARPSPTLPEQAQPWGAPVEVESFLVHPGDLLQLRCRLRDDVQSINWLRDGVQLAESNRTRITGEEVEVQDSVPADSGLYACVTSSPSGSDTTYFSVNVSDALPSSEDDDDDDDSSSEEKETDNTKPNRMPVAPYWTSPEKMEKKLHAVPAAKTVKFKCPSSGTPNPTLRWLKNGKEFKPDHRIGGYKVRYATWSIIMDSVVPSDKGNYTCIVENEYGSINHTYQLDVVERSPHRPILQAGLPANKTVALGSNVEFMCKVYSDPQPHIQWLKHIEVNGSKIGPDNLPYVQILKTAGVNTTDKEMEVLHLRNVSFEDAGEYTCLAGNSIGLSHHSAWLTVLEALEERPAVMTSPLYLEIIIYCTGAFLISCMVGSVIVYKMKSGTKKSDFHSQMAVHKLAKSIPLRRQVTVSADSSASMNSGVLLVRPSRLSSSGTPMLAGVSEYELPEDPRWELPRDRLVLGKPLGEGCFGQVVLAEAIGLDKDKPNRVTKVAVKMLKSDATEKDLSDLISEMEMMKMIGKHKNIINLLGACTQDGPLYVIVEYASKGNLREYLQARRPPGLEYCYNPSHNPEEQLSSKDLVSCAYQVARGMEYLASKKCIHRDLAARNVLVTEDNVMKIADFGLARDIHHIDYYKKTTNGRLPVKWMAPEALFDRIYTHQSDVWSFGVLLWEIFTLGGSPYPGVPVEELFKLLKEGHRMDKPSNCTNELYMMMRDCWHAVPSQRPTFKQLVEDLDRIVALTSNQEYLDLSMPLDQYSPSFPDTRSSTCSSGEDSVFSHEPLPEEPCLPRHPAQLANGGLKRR
Chain of MERTK (Q12866 whole entry, looked up): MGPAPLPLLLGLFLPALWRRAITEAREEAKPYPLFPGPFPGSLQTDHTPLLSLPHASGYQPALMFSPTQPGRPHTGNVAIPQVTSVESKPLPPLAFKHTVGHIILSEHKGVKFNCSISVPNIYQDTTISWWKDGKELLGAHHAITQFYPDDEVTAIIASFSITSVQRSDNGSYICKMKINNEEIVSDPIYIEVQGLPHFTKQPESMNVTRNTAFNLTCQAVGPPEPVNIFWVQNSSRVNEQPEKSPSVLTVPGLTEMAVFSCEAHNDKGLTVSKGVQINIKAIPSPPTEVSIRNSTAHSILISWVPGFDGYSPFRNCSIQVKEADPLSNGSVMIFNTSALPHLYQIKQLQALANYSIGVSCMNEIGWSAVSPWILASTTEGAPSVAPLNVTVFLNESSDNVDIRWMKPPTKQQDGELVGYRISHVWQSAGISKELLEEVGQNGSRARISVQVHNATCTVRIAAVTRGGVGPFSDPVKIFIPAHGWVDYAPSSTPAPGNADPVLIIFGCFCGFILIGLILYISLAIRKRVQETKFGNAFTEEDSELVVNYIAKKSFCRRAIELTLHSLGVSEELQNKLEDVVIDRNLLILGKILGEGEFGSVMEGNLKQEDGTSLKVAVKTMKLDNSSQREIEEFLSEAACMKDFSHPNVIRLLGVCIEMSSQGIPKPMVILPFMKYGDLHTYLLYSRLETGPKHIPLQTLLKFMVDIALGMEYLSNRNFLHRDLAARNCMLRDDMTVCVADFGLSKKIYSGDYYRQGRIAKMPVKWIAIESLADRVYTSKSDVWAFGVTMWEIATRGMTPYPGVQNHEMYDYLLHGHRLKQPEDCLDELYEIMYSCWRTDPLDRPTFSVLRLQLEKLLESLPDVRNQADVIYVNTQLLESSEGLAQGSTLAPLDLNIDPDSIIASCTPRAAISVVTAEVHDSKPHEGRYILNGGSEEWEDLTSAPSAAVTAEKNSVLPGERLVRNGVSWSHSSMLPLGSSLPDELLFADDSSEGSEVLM
Chain of Jak2 (O60674 whole entry, looked up): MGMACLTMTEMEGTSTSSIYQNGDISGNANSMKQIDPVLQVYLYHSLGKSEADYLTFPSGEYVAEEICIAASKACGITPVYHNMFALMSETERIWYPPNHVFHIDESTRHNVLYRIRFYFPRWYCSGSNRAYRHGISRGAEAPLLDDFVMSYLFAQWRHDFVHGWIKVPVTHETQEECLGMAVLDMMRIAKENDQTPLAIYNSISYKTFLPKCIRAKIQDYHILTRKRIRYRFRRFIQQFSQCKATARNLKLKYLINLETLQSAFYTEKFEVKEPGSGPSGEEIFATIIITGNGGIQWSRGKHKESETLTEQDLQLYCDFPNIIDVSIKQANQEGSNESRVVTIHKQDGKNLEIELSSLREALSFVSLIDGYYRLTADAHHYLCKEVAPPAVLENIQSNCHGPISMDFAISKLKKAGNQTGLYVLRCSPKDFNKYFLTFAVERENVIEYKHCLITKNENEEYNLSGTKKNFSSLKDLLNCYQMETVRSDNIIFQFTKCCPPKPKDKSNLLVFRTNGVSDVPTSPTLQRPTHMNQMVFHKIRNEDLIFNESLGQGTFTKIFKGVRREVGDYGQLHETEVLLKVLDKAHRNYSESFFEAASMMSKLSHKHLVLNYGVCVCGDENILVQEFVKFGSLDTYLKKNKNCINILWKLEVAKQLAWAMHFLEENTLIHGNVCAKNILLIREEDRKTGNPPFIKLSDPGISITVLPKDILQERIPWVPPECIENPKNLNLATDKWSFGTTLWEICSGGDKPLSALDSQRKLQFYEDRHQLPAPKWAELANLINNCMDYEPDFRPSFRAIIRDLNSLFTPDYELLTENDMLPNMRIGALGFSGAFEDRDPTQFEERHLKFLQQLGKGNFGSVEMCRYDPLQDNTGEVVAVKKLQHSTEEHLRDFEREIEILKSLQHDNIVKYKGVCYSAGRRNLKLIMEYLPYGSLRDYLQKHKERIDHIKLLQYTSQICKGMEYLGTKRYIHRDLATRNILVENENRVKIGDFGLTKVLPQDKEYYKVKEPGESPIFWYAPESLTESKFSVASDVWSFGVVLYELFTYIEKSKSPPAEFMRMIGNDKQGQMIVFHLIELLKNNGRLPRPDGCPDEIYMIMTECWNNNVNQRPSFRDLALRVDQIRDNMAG
Chain of Hck (P08631 whole entry, looked up): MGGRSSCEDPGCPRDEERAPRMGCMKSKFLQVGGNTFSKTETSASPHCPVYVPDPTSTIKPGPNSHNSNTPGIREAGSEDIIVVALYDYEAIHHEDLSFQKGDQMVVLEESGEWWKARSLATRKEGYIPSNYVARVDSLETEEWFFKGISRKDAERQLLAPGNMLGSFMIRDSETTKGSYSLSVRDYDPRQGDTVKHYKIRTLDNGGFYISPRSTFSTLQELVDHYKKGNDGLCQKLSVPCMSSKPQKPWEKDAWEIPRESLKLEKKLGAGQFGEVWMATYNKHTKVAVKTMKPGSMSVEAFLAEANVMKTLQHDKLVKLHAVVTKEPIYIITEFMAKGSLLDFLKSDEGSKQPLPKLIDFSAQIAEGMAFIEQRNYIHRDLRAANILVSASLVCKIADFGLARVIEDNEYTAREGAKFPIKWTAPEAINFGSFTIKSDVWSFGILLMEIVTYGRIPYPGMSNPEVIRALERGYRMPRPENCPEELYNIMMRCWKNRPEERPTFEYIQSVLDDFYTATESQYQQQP

Sequence | SH2 binding enrichment (Grb2 SH2) | SH2 binding enrichment (SHP2-C SH2) | SH2 binding enrichment (c-Src SH2) | phosphorylation enrichment (AncSZ) | phosphorylation enrichment (EPHB1) | phosphorylation enrichment (EPHB2) | phosphorylation enrichment (FGFR1) | phosphorylation enrichment (FGFR3) | phosphorylation enrichment (Fer (mouse)) | phosphorylation enrichment (Fes) | phosphorylation enrichment (Fyn) | phosphorylation enrichment (Hck) | phosphorylation enrichment (Jak2) | phosphorylation enrichment (MERTK) | phosphorylation enrichment (c-Abl (mouse)) | phosphorylation enrichment (c-Src)
FMKEPYIQSRF [HIPK4_Y175_V171M_YF] | 0.964 | 0.687 | 0.57 | 0.54 | 0.257 | 0.412 | 0.372 | 0.449 | 0.275 | 0.643 | 0.332 | 0.393 | 0.807 | 0.452 | 0.548 | 0.474
VSFGEYRFRSV [CFTR_Y515_D513G_YF] | 0.792 | 0.9 | 0.528 | 0.668 | 0.431 | 0.443 | 0.523 | 0.513 | 0.402 | 0.801 | 0.356 | 0.469 | 0.574 | 0.395 | 0.672 | 0.489
ASGKFYAMKIL [AKT3_Y174_YF] | 1 | 1.05 | 0.763 | 0.858 | 0.519 | 0.625 | 0.609 | 0.589 | 0.543 | 1.07 | 0.529 | 0.53 | 0.801 | 0.509 | 0.675 | 0.426
IDPYTYTPFGS [CYP3A4_Y432_I431T] | 0.92 | 0.885 | 1.17 | 1.3 | 0.563 | 0.6 | 3.24 | 2.25 | 0.698 | 0.914 | 7.04 | 3.36 | 0.907 | 1.16 | 0.63 | 6.82
IRTIDYRFTVS [IDS_Y497_W502S_YF] | 1.18 | 1.18 | 0.813 | 0.907 | 0.496 | 0.547 | 0.483 | 0.683 | 0.596 | 1.05 | 0.424 | 0.444 | 0.989 | 0.441 | 0.989 | 0.458
KMATAYIRSMS [BCO1_Y264_R267S] | 1.08 | 0.59 | 0.464 | 0.564 | 0.409 | 0.374 | 0.397 | 0.369 | 0.337 | 0.6 | 0.417 | 0.388 | 0.518 | 0.396 | 0.516 | 0.385
WSISFYPQVIM [CTNS_Y143] | 0.883 | 0.588 | 0.571 | 1.21 | 0.586 | 0.552 | 0.513 | 0.805 | 0.471 | 1.33 | 0.354 | 0.399 | 1.19 | 0.301 | 0.623 | 0.35
RLGLQYSQGLV [EIF2B4_Y214] | 0.955 | 0.553 | 0.452 | 0.876 | 0.676 | 0.725 | 0.853 | 0.851 | 0.654 | 1.31 | 0.732 | 0.588 | 1.19 | 0.365 | 1.16 | 0.683
NDLMEYAKQHG [ASS1_Y163] | 0.724 | 0.621 | 0.381 | 0.852 | 0.48 | 0.471 | 0.487 | 0.563 | 0.541 | 0.896 | 0.457 | 0.502 | 0.856 | 0.426 | 0.75 | 0.437
ISNATYKEIGL [FLT1_Y199] | 0.823 | 0.587 | 1.04 | 0.462 | 0.352 | 0.498 | 0.446 | 0.438 | 0.471 | 0.605 | 0.447 | 0.485 | 0.442 | 0.304 | 0.467 | 0.366
RWQQLYDTLNA [EIF3M_Y351_Q346R] | 0.827 | 0.695 | 0.338 | 1.32 | 1.95 | 2.02 | 0.574 | 0.848 | 3.35 | 1.45 | 5.67 | 7.68 | 2.43 | 6.56 | 0.788 | 3.71
NVLPEYKLQAP [KCNH2_Y388_D383N] | 0.906 | 0.564 | 0.455 | 0.784 | 0.518 | 0.632 | 0.411 | 0.619 | 0.402 | 0.949 | 0.508 | 0.527 | 0.813 | 0.43 | 0.677 | 0.439
TSSAGYRRTPS [ABI1_Y333_G331A] | 1.03 | 0.405 | 0.45 | 0.565 | 0.42 | 0.497 | 0.499 | 0.491 | 0.36 | 0.594 | 0.484 | 0.446 | 0.476 | 0.392 | 0.576 | 0.444
SFPSTYRFERG [INPPL1_Y661_P659S_YF] | 0.828 | 0.655 | 0.466 | 0.538 | 0.345 | 0.394 | 0.411 | 0.538 | 0.427 | 0.652 | 0.39 | 0.479 | 0.724 | 0.392 | 0.644 | 0.569
LGNFNYEQRGA [API5_Y497] | 0.87 | 0.487 | 0.462 | 0.761 | 0.474 | 0.456 | 0.569 | 0.507 | 0.408 | 0.986 | 0.435 | 0.485 | 0.919 | 0.392 | 0.715 | 0.43

Further lines, with some results ahead:

SH2 binding enrichment (Grb2 SH2) | SH2 binding enrichment (SHP2-C SH2) | SH2 binding enrichment (c-Src SH2) | Sequence | phosphorylation enrichment (AncSZ) | phosphorylation enrichment (EPHB1) | phosphorylation enrichment (EPHB2) | phosphorylation enrichment (FGFR1) | phosphorylation enrichment (FGFR3) | phosphorylation enrichment (Fer (mouse)) | phosphorylation enrichment (Fes) | phosphorylation enrichment (Fyn) | phosphorylation enrichment (Hck) | phosphorylation enrichment (Jak2) | phosphorylation enrichment (MERTK) | phosphorylation enrichment (c-Abl (mouse)) | phosphorylation enrichment (c-Src)
0.832 | 0.834 | 6.2 | WYQTKYEELQV [KRT6B_Y360_I365V] | 1.11 | 0.61 | 0.707 | 0.521 | 0.753 | 0.568 | 1.28 | 0.519 | 0.723 | 1.02 | 0.394 | 0.741 | 0.452
0.707 | 0.876 | 1.18 | IPTPAYQSLPA [PDCD6IP_Y727_S730L] | 0.652 | 0.506 | 0.501 | 0.497 | 0.711 | 0.341 | 0.624 | 0.467 | 0.941 | 0.616 | 0.898 | 0.546 | 0.416
0.853 | 0.607 | 0.956 | RRGTGYTLPLP [MAGEC3_Y152_S155P] | 0.971 | 0.977 | 0.387 | 0.651 | 0.522 | 0.424 | 0.696 | 0.642 | 0.607 | 1.01 | 0.838 | 0.683 | 0.831
1.38 | 1.51 | 1 | CTTIHYMFMCN [TP53_Y234_N235M_YF] | 1.05 | 0.608 | 0.668 | 0.526 | 0.659 | 0.555 | 1.22 | 0.445 | 0.552 | 1.02 | 0.367 | 0.673 | 0.38
0.878 | 0.712 | 0.484 | SPLTDYSPQLQ [OTC_Y345_L341P] | 0.749 | 0.414 | 0.517 | 0.522 | 0.489 | 0.421 | 0.67 | 0.403 | 0.417 | 0.691 | 0.479 | 0.661 | 0.496
0.701 | 0.897 | 0.438 | EEGRVYVYHLS [ITGAE_Y549_R552H] | 1.13 | 0.576 | 0.491 | 0.58 | 0.75 | 0.756 | 1.22 | 0.64 | 0.519 | 0.998 | 0.449 | 0.713 | 0.828
1.04 | 0.751 | 0.513 | NHFKIHNLCAE [PTEN_Y68_Y68H_YF] | 0.58 | 0.384 | 0.374 | 0.428 | 0.441 | 0.384 | 0.642 | 0.466 | 0.394 | 0.459 | 0.437 | 0.367 | 0.432
0.76 | 0.59 | 0.553 | DDYDLYGGEKF [PTPN11_Y66_Y62D] | 1.51 | 0.915 | 2.85 | 0.507 | 0.681 | 0.957 | 1.1 | 1.7 | 2.25 | 0.963 | 0.439 | 0.871 | 2.07
0.756 | 0.657 | 0.496 | FSPFDYQPCLA [TNS1_Y798_YF] | 1.39 | 0.775 | 0.715 | 1.01 | 0.978 | 0.643 | 1.44 | 0.589 | 0.66 | 1.21 | 0.538 | 1.04 | 0.57
0.731 | 0.712 | 1.28 | SVIVPYEPPEV [TP53_Y220_V217I] | 1.1 | 0.622 | 0.618 | 0.6 | 0.81 | 0.631 | 1.23 | 0.654 | 0.517 | 1.08 | 0.447 | 0.831 | 0.445
0.724 | 0.81 | 0.412 | PESILYRKFTT [NTRK1_Y701] | 1.14 | 0.668 | 0.52 | 0.627 | 0.73 | 0.818 | 0.9 | 0.377 | 0.538 | 1.14 | 0.542 | 0.732 | 0.632
0.853 | 0.408 | 0.411 | KGEPQYSSHSS [SIPA1L3_Y1265] | 0.515 | 0.327 | 0.317 | 0.298 | 0.421 | 0.45 | 0.547 | 0.554 | 0.295 | 0.57 | 0.429 | 0.498 | 0.496
1.36 | 1.07 | 1.75 | KMTGRYEMFAR [UPB1_Y362_YF] | 0.808 | 0.496 | 0.556 | 0.499 | 0.53 | 0.438 | 0.815 | 0.386 | 0.505 | 0.586 | 0.633 | 0.571 | 0.451
1.03 | 0.637 | 0.561 | LPENPYHSRPR [NDUFA8_Y142] | 0.643 | 0.3 | 0.41 | 0.442 | 0.408 | 0.384 | 0.632 | 0.72 | 0.916 | 0.552 | 0.415 | 0.761 | 1.8
0.91 | 0.597 | 0.434 | GGDAVYTNGTI [RFX2_Y82_A86T] | 0.778 | 1.39 | 0.488 | 0.392 | 0.613 | 0.464 | 0.836 | 1.17 | 1.19 | 0.667 | 0.391 | 0.74 | 1.32
0.953 | 1.12 | 8.63 | WFQTKYEELQI [KRT6B_Y360_YF] | 0.839 | 0.446 | 0.488 | 0.428 | 0.633 | 0.46 | 0.981 | 0.38 | 0.417 | 0.987 | 0.403 | 0.651 | 0.398
0.765 | 0.614 | 1.78 | SVVVPYELPEV [TP53_Y220_P222L] | 1.65 | 0.643 | 0.659 | 0.553 | 0.723 | 0.581 | 1.29 | 0.503 | 0.58 | 1.09 | 0.47 | 0.848 | 0.545
0.862 | 0.58 | 0.413 | QEIATYRRLLE [KRT14_Y415] | 0.689 | 0.418 | 0.53 | 0.509 | 0.68 | 0.411 | 0.936 | 0.562 | 0.453 | 0.693 | 0.464 | 0.563 | 0.503
